Data taken from patent US8491891B2, “Human beta-glucuronidase mutants with elevated enzymatic activity under physiological conditions and method for identifying such” (Academia Sinica, priority 2008, dated 2013).

Experiments:
[1] = Kinetic values (Km, kcat) of soluble recombinant human β-glucuronidase and variants; format: biochemical; conditions: for kcat/Km, fold higher than wild-type human β-glucuronidase: pH 7.0
Protocol: Recombinant His-tagged wild-type human β-glucuronidase and its variants (soluble) were produced in and purified from stable 3T3 fibroblast lines, following the method described above also the method described in Wu et al., Biotechnol Appl Biochem 40:167-172 (2004).
(§1) The pH-dependent enzyme activities of the above-mentioned recombinant human beta-glucuronidase and variants were measured in triplicate with 0.1 mM ELF97 β-D-glucuronide at 37° C. for 30 minutes at a defined pH ranging from 3-10 in a beta-glucuronidase reaction buffer (50 mM Bis-Tris, 50 mM triethanol amine, 100 mM acetic acid, 0.1% BSA). The reaction was quenched by adding an equal volume of a stop buffer (2 M Tris-HCl, 0.8 M sodium bicarbonate, pH 8). The fluorescence of ELF97 was measured in a Gemini EM microplate spectrofluorometer (Molecular Device, Sunnyvale, Calif.) at excitation/emission wavelengths of 355/555 nm. Kinetic values for human beta-glucuronidase substrate hydrolysis were determined by diluting ELF97 β-D-glucuronide (2 mM) in a pH 4.5 or pH 7.0 beta-glucuronidase reaction buffer 1:1 with defined concentrations of human beta-glucuronidase in 200 μl. Fluorescence was immediately measured under thermal control at 37° C. for 8-10 min. The measurement was repeated using the same amount of enzyme at different substrate concentrations in an optimal range. The acquired readings were converted to product concentration based on preestablished standard curves. Double reciprocal plots were used to determine Km and kcat. Kinetic assays were performed at least 3 times and mean values were calculated. The stability of recombinant human beta-glucuronidase variants was carried out by measuring their enzymatic activity at time 0 and again after incubating 5 μg purified enzymes in PBS (containing 0.5 mg/ml BSA) at 37° C. for 14 days. The enzymatic activities of the human beta-glucuronidase variants were measured in triplicate with 0.5 mM 4-methylumbelliferyl β-D-glucuronide at 37° C. for 15 minutes at pH 7.0 in β-glucuronidase reaction buffer. The reaction was terminated by adding an equal volume of a stop buffer (1 M glycine, 0.5 M sodium bicarbonate, pH 11) and the fluorescence was measured at excitation/emission wavelengths of 355/460 nm in a microplate spectrofluorometer.

[2] = pH-dependent enzyme activity of recombinant human β-glucuronidase and variants (pH 3-10); format: biochemical
Protocol: as §1, with “The measurement was repeated using the same amount of enzyme at different substrate concentrations in an optimal range.” left out, “Double reciprocal plots were used to determine Km and kcat.” left out, “The stability of recombinant human beta-glucuronidase variants was carried out by measuring their enzymatic activity at time 0 and again after incubating 5 μg purified enzymes in PBS (containing 0.5 mg/ml BSA) at 37° C. for 14 days.” left out, “The reaction was terminated by adding an equal volume of a stop buffer (1 M glycine, 0.5 M sodium bicarbonate, pH 11) and the fluorescence was measured at excitation/emission wavelengths of 355/460 nm in a microplate spectrofluorometer.” left out

[3] = system: EJ human bladder cancer cells; assay: Prodrug activation of HAMG by enzyme, 3H-thymidine incorporation; format: cell-based; conditions: 10 μM HAMG, pH 6.8, 24 h
Protocol: (§2) The prodrug activation activity of the human beta-glucuronidase variants was determined as follows. EJ human bladder cancer cells were incubated with graded concentrations (see FIGS. 3B and 3C) of human β-glucuronidase variants in RPMI (pH 6.8) containing either 10 μM HAMG or 100 nM SN-38G for 24 hours. The cells were further incubated for 24 hours in fresh medium before incorporation of ^3H-thymidine into cellular DNA was measured following the procedure described below.
(§3) Purified recombinant human beta-glucuronidase and its variants with defined concentrations were mixed with 10 μM HAMG or 100 nM SN-38G and the mixture was added to 5000 EJ human bladder cancer cells in 200 μl complete medium at pH 6.8 for 24 h. The cells were washed and incubated in fresh medium for 24 h and then pulsed for 16 h with ^3H-thymidine (1 μCi/well). The cells were harvested and the radioactivity was measured in a TopCount Microplate Scintillation Counter (Packard, Meriden, Conn.). Results are expressed as percent inhibition of ^3H-thymidine incorporation into cellular DNA in comparison to untreated cells.

[4] = Relative activity of membrane-tethered human β-glucuronidase variants on 3T3 cells by flow cytometry (FL4/FL1); format: cell-based; conditions: membrane-tethered enzyme, pH 7.0, substrate ELF97 β-D-glucuronide
Protocol: The 3T3 cell libraries mentioned above were screened by FACS analysis for cells that express human β-glucuronidase variants with elevated enzymatic activity. 10^7 3T3 cells expressing membrane-bound human β-glucuronidase variants were washed and suspended in 0.4 ml BSA/HBSS (5.4 mM KCl, 0.3 mM Na2HPO4, 0.4 mM KH2PO4, 4.2 mM NaHCO3, 1.3 mM CaCl2, 0.5 mM MgCl2, 0.6 mM MgSO4, 137 mM NaCl, 5.6 mM D-glucose, pH 7.4) containing 0.5% bovine serum albumin (BSA) and 20 μg/ml 7G8-FITC for 30 min at 4° C. Cells were then washed and incubated with 25, 50 or 100 μM ELF97 β-D-glucuronide at defined pH values in 50 mM Bis-Tris, 25 mM glucose, 85.6 mM NaCl, 5.4 mM KCl, 0.6 mM MgSO4, 1.3 mM CaCl2) at 37° C. for 10 min. The cells were washed with ice-cold 0.5% BSA/HBSS and suspended in 0.5% BSA/HBSS containing 5 μg/ml propidium iodide (Sigma). Cells were then sorted on a FACSVantage DiVa (Becton, Dickinson and Company, Franklin Lakes, N.J.) equipped with an Enterprise IIC argon laser for dual excitation at 488 and 351-364 nm. Dead cells (propidium iodide positive, high FL3 fluorescence) were gated out before 7G8-FITC immunofluorescence was detected at excitation/emission wavelengths of 488/515 nm (FL1) and ELF97 was detected at excitation/emission wavelengths of 351/530 nm (FL4). […] The sorted cells were cultured for 4-10 days for sequential rounds of cell sorting or RNA extraction. Flow cytometer data was analyzed using Flowjo (Tree star, Ashland, Oreg.).
Independent 3T3 clones (5×10^7) in library EP2 mentioned above were immunofluorescence stained with 7G8-FITC and reacted with ELF97 β-D-glucuronide at pH 7.0. Sixteen individual cell clones were isolated after three rounds of sorting and the human β-glucuronidase genes were sequenced. […] Table 1 below lists amino acid substitutions in five exemplary variants and their relative enzymatic activities.

[5] = system: EJ human bladder cancer cells; assay: Prodrug activation of SN-38G by enzyme, 3H-thymidine incorporation; format: cell-based; conditions: 100 nM SN-38G, pH 6.8, 24 h
Protocol: as §2, §3

[6] = Enzymatic activity of purified position-545 single mutants at pH 7.0; format: biochemical; conditions: purified enzyme
Text: DNA plasmids were extracted from 12 individual cell clones and subjected to DNA sequencing to examine mutations in the genes encoding human β-glucuronidase variants. All human β-glucuronidase variants being examined had mutations at position 545 (50% T→A and 50% T→S). To determine the effect of amino acid substitutions at position 545 on enzyme activity, the single amino acid mutants T545A (E1-A), T545G (E1-G), T545S (E1-S) and T545Y (E1-Y) were generated and purified from the culture medium of stably transfected fibroblasts. […] Thus, the single amino acid substitution at position 545 affected human β-glucuronidase activity at neutral pH.

pH of maximal activity ([2]; 0.1 mM ELF97 β-D-glucuronide, 37° C., 30 minutes)	Activity at pH 7.0 as percent of maximal activity ([2]; pH 7.0)	Molecule	Km ([1]; pH 4.5, 37° C.)	kcat ([1]; pH 4.5, 37° C.)	Km ([1]; pH 7.0, 37° C.)	kcat ([1]; pH 7.0, 37° C.)	EC50 of enzyme for killing of EJ cells with HAMG [3]	Relative activity (FL4/FL1 normalized to wild-type human β-glucuronidase) [4]	EC50 of enzyme for killing of EJ cells with SN-38G [5]	kcat/Km, fold higher than wild-type human β-glucuronidase [1]	Enzymatic activity relative to wild-type human β-glucuronidase [6]
4.0	2%	Wild type: Human beta-glucuronidase (wild-type, SEQ ID NO: 11) (protein, listed as Homo sapiens) MARGSAVAWAALGPLLWGCALGLQGGMLYPQESPSRECKELDGLWSFRADFSDNRRRGFEEQWYRRPLWESGPTVDMPVPSSFNDISQDWRLRHFVGWVWYEREVILPERWTQDLRTRVVLRIGSAHSYAIVWVNGVDTLEHEGGYLPFEADISNLVQVGPLPSRLRITIAINNTLTPTTLPPGTIQYLTDTSKYPKGYFVQNTYFDFFNYAGLQRSVLLYTTPTTYIDDITVTTSVEQDSGLVNYQISVKGSNLFKLEVRLLDAENKVVANGTGTQGQLKVPGVSLWWPYLMHERPAYLYSLEVQLTAQTSLGPVSDFYTLPVGIRTVAVTKSQFLINGKPFYFHGVNKHEDADIRGKGFDWPLLVKDFNLLRWLGANAFRTSHYPYAEEVMQMCDRYGIVVIDECPGVGLALPQFFNNVSLHHHMQVMEEVVRRDKNHPAVVMWSVANEPASHLESAGYYLKMVIAHTKSLDPSRPVTFVSNSNYAADKGAPYVDVICLNSYYSWYHDYGHLELIQLQLATQFENWYKKYQKPIIQSEYGAETIAGFHQDPPLMFTEEYQKSLLEQYHLGLDQKRRKYVVGELIWNFADFMTEQSPTRVLGNKKGIFTRQRQPKSAAFLLRERYWKIANETRYPHSVAKSQCLENSPFT	480 ± 60 µM	175 ± 17 s⁻¹	2250 ± 670 µM	41 ± 6 s⁻¹	24 µg/mL	1	0.096 µg/mL		
		E1-S: human beta-glucuronidase variant T545S, SEQ ID NO: 6 (protein, Laboratory generated variant, E1-S, based upon the human beta-glucuronidase) GAQPALQGGMLYPQESPSRECKELDGLWSFRADFSDNRRRGFEEQWYRRPLWESGPTVDMPVPSSFNDISQDWRLRHFVGWVWYEREVILPERWTQDLRTRVVLRIGSAHSYAIVWVNGVDTLEHEGGYLPFEADISNLVQVGPLPSRLRITIAINNTLTPTTLPPGTIQYLTDTSKYPKGYFVQNTYFDFFNYAGLQRSVLLYTTPTTYIDDITVTTSVEQDSGLVNYQISVKGSNLFKLEVRLLDAENKVVANGTGTQGQLKVPGVSLWWPYLMHERPAYLYSLEVQLTAQTSLGPVSDFYTLPVGIRTVAVTKSQFLINGKPFYFHGVNKHEDADIRGKGFDWPLLVKDFNLLRWLGANAFRTSHYPYAEEVMQMCDRYGIVVIDECPGVGLALPQFFNNVSLHHHMQVMEEVVRRDKNHPAVVMWSVANEPASHLESAGYYLKMVIAHTKSLDPSRPVTFVSNSNYAADKGAPYVDVICLNSYYSWYHDYGHLELIQLQLATQFENWYKKYQKPIIQSEYGAESIAGFHQDPPLMFTEEYQKSLLEQYHLGLDQKRRKYVVGELIWNFADFMTEQSPTRVLGNKKGIFTRQRQPKSAAFLLRERYWKIANETRYPHSVAKSQCLENSPFTSVD	52 ± 4 µM	117 ± 14 s⁻¹	390 ± 40 µM	31 ± 6 s⁻¹		21		4 fold	about 1.5 fold
		E1-G: human beta-glucuronidase variant T545G, SEQ ID NO: 7 (protein, Laboratory generated variant, E1-G, based upon the human beta-glucuronidase) GAQPALQGGMLYPQESPSRECKELDGLWSFRADFSDNRRRGFEEQWYRRPLWESGPTVDMPVPSSFNDISQDWRLRHFVGWVWYEREVILPERWTQDLRTRVVLRIGSAHSYAIVWVNGVDTLEHEGGYLPFEADISNLVQVGPLPSRLRITIAINNTLTPTTLPPGTIQYLTDTSKYPKGYFVQNTYFDFFNYAGLQRSVLLYTTPTTYIDDITVTTSVEQDSGLVNYQISVKGSNLFKLEVRLLDAENKVVANGTGTQGQLKVPGVSLWWPYLMHERPAYLYSLEVQLTAQTSLGPVSDFYTLPVGIRTVAVTKSQFLINGKPFYFHGVNKHEDADIRGKGFDWPLLVKDFNLLRWLGANAFRTSHYPYAEEVMQMCDRYGIVVIDECPGVGLALPQFFNNVSLHHHMQVMEEVVRRDKNHPAVVMWSVANEPASHLESAGYYLKMVIAHTKSLDPSRPVTFVSNSNYAADKGAPYVDVICLNSYYSWYHDYGHLELIQLQLATQFENWYKKYQKPIIQSEYGAEGIAGFHQDPPLMFTEEYQKSLLEQYHLGLDQKRRKYVVGELIWNFADFMTEQSPTRVLGNKKGIFTRQRQPKSAAFLLRERYWKIANETRYPHSVAKSQCLENSPFTSVD	22 ± 2 µM	106 ± 4 s⁻¹	110 ± 10 µM	32 ± 4 s⁻¹				10 fold	about 2.5 fold
		E1-Y: human β-glucuronidase single amino acid mutant T545Y (protein, UniProt P08236 23-651, looked up, variant T545Y) Beta-glucuronidase: LQGGMLYPQESPSRECKELDGLWSFRADFSDNRRRGFEEQWYRRPLWESGPTVDMPVPSSFNDISQDWRLRHFVGWVWYEREVILPERWTQDLRTRVVLRIGSAHSYAIVWVNGVDTLEHEGGYLPFEADISNLVQVGPLPSRLRITIAINNTLTPTTLPPGTIQYLTDTSKYPKGYFVQNTYFDFFNYAGLQRSVLLYTTPTTYIDDITVTTSVEQDSGLVNYQISVKGSNLFKLEVRLLDAENKVVANGTGTQGQLKVPGVSLWWPYLMHERPAYLYSLEVQLTAQTSLGPVSDFYTLPVGIRTVAVTKSQFLINGKPFYFHGVNKHEDADIRGKGFDWPLLVKDFNLLRWLGANAFRTSHYPYAEEVMQMCDRYGIVVIDECPGVGLALPQFFNNVSLHHHMQVMEEVVRRDKNHPAVVMWSVANEPASHLESAGYYLKMVIAHTKSLDPSRPVTFVSNSNYAADKGAPYVDVICLNSYYSWYHDYGHLELIQLQLATQFENWYKKYQKPIIQSEYGAEYIAGFHQDPPLMFTEEYQKSLLEQYHLGLDQKRRKYVVGELIWNFADFMTEQSPTRVLGNKKGIFTRQRQPKSAAFLLRERYWKIANETRYPHSVAKSQCLENSLFT									almost inactive
